Patent US20180334496A1 (KODIAK SCIENCES, published 2018)
Substitutions are numbered along the chain they refer to. Several values for one entry are separate records, joined by “and”; a condition that tells them apart may be missing. Identical values can stand only once.

B1: 54I59D / 32W54S101V (antibody, V domains shown)
VH: EVQLVESGGGLVQPGGSLRLSCAASGYTFTDYYMNWVRQAPGKGLEWIGDINPITGDTDYNADFKRRFTFSLDTSKSTAYLQMNSLRAEDTAVYYCTREGPSFAYWGQGTLVTVSS
VL: DIQLTQSPSSLSASVGDRVTITCRSSQTIVHWNGDTYLEWYQQKPGKAPNLLISKVSNRFSGVPSRFSGSGSGTDFTLTISSLQPEDFATYYCFQGSHVPVTFGQGTKVEIK
notes: Light label printed 32W545101V, read as 32W54S101V; also called 54I59D / 32W545101V
B2: 54I59D / 54G60W101 (antibody, V domains shown)
VH: B1 VH
VL: B1 VL with W32S, S54G, F60W
B3: 54V59D / 54R101V (antibody, V domains shown)
VH: B1 VH with I54V
VL: DIQLTQSPSSLSASVGDRVTITCRSSQTIVHSNGDTYLEWYQQKPGKAPNLLIRKVSNRFSGVPSRFSGSGSGTDFTLTISSLQPEDFATYYCFQGSHVPVTFGQGTKVEIKR
notes: KCD119 TAF variant
B4: 54I59D / 50I60W101V (antibody, V domains shown)
VH: B1 VH
VL: B1 VL with W32S, N50I, S54Y, F60W
notes: KCD119 TAF variant; full antibody captured on protein A
B5: 54I59D / 32W60W101V (antibody, V domains shown)
VH: B1 VH
VL: B1 VL with S54Y, F60W
notes: as for B4
B6: 54V59D / 34D60W101V (antibody, V domains shown)
VH: B1 VH with I54V
VL: B1 VL with W32S, G34D, S54Y, F60W
notes: as for B4
B7: 54V59D / 34D50V101V (antibody, V domains shown)
VH: B1 VH with I54V
VL: B1 VL with W32S, G34D, N50V, S54Y
notes: as for B4
B8: 54V59D / 32D60W101V (antibody, V domains shown)
VH: B1 VH with I54V
VL: B1 VL with W32D, S54Y, F60W
notes: as for B4
B9: 54V59D / 32D50I101V (antibody, V domains shown)
VH: B1 VH with I54V
VL: B1 VL with W32D, N50I, S54Y
notes: as for B4
B10: 54I59D / 101V (antibody, V domains shown)
VH: B1 VH
VL: B1 VL with W32S, S54Y
notes: as for B4
B11: 31S54V59D / 54R101V (antibody, V domains shown)
VH: B1 VH with D31S, I54V
VL: B3 VL
notes: KCD119 TAF variant
B12: 54I59D / 54S60W101V (antibody, V domains shown)
VH: B1 VH
VL: B1 VL with W32S, F60W
notes: Light label printed 54560W101V, read as 54S60W101V; also called 54I59D / 54560W101V
B13: 54V59D / 32W50I101V (antibody, V domains shown)
VH: B1 VH with I54V
VL: B1 VL with N50I, S54Y
notes: as for B4
B14: 54V56V / 101V (antibody, V domains shown)
VH: B1 VH with I54V, G56V, D59S
VL: B1 VL with W32S, S54Y
notes: as for B4
B15: 54V / 101V (antibody, V domains shown)
VH: B1 VH with I54V, D59S
VL: B1 VL with W32S, S54Y
notes: as for B4
B16: KCD006 (antibody, V domains shown)
VH: EVQLQQSGAELVKPGASVKLSCTASGFKIKDTYMHWVKERPEQGLEWIGRIDPANGNTKYDPKFQGKATITADTSSNTAYLQLSSLTSEDTAVYYCANAMDYWGQGTSVTVSS
VL: QIILTQSPAIMSASPGEKVTMTCSARSSVSNMYWYQQKPGSSPRLLIYDTSNLASGVPVRFSGSGSGTSYSLTISRMEAEDAATYYCQQWSSYPWTFGGGTKLEIK
B17: KCD129 (antibody, V domains shown)
VH: EVQLVESGGGLVQPKGSLKLSCAASGFSFNTYAMNWVRQAPGKGLEWVARIRSKSNNYATYYADSVKDRFTISRDDSESMVYLQMNNLKTEDTAMYYCVRHGYYWYFDVWGTGTTVTVSS
VL: DVLMTQTPLSLPVSLGDQASISCRSSQSIVHSDGNTYLEWYLQKPGQSPKLLIYRVSNRFSGVPDRFSGSGSGTDFTLKISRMEAEDLGVYYCFQGSHVPYTFGGGTKLEIK
B18: KCD207 (antibody, V domains shown)
VH: B17 VH with E1A, I72L, V81L, H101Q, Y103F
VL: B17 VL with S28T, D33N, P45S, R55N, S68R, M83V, G105S
B19: KCD229 (antibody, V domains shown)
VH: B17 VH with S73F, V81L
VL: B17 VL with T7N, D33N, K50N, R55N, S57F, M83V, G105S
B20: KCD112 (antibody, V domains shown)
VH: EVQLQQSGPELVKPGASVKISCKASGYSFTAYYMNWVKHSPEKSLEWIGDINPSTGGTTYNQKFKARATLTVDKSSSTAYMQLKSLTSEDSAVYYCATTYYSGNSYVGFAYWGQGTLVTVSA
VL: DIVMTQSHKFMSTSVGDRVSITCKASQDVSTAVAWYQQKPGQSPKLLIFWTSTRHTGVPDRFTGSGSGTDYTLTISSVQAEDLALYYCQQHYTTPWTFGGGTKLEIK
B21: KCD115 (antibody, V domains shown)
VH: B20 VH with A31G, H39Q, R67K, T99P, S102Y, N104S
VL: B20 VL with A34D, F49Y, T51A, T93S

Columns and labels:
[1] = target: T1, serum purified human Complement Factor D (human, UniProt P00746 26-253); test: SPR Biacore, antibody on protein A chip, single cycle kinetics, 37 C;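 note: antibodies captured on the protein A surface to roughly 70 RU in HBS-EP+ buffer, with rate and affinity constants fitted using BIAevaluation software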
T1 construct: Serum purified protein flowed over the captured antibodies; also called CFD; human CFD
T1 sequence (P00746 26-253): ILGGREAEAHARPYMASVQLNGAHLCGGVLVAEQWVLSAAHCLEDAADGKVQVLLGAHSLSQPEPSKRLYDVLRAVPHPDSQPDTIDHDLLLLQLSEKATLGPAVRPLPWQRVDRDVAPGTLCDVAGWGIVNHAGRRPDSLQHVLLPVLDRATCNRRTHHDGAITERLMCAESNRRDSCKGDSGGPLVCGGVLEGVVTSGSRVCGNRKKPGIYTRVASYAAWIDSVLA
Procedure: (§1) Antibodies were diluted to 0.5 ug/ml in HBS-EP+ buffer and captured on a protein A chip for 25 seconds to reach approximately 70 resonance units. […] Binding kinetic information was obtained by the BIAevaluation software (GE).

[2] = target: T1, serum purified human Complement Factor D; test: SPR Biacore, antibody on protein A chip, single cycle kinetics, 25 C;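 note: antibodies captured to roughly 70 RU on the protein A surface in HBS-EP+ running buffer, with kinetic constants derived by BIAevaluation fitting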
Procedure: as §1

[3] = target: T2, recombinant cynomolgus CFD, His-tagged (cynomolgus); test: SPR MX96
T2 construct: also called rcyCFD-His; recombinant Cyno-CFD

Binder	Kd [1]	koff [1]	kon [1]	Kd [2]	koff [2]	kon [2]	Kd [3] [nM]
B1	0.011 nM	0.000155 s⁻¹	1.41e+07 M⁻¹ s⁻¹	0.00948 nM	7.29e-05 s⁻¹	7.69e+06 M⁻¹ s⁻¹	–
B2	0.00989 nM	0.000118 s⁻¹	1.19e+07 M⁻¹ s⁻¹	0.0125 nM	8.54e-05 s⁻¹	6.83e+06 M⁻¹ s⁻¹	–
B3	0.0154 nM	0.00037 s⁻¹	2.4e+07 M⁻¹ s⁻¹	0.0119 nM	0.000141 s⁻¹	1.19e+07 M⁻¹ s⁻¹	–
B4	0.0318 nM	0.000329 s⁻¹	1.04e+07 M⁻¹ s⁻¹	0.0121 nM	6.67e-05 s⁻¹	5.53e+06 M⁻¹ s⁻¹	–
B5	0.0131 nM and 0.00972 nM and 0.00501 nM	–	1.5e+07 M⁻¹ s⁻¹ and 6.86e+06 M⁻¹ s⁻¹ and 1.17e+07 M⁻¹ s⁻¹	–	3.5e-05 s⁻¹ and 8.32e-05 s⁻¹ and 6.85e-05 s⁻¹	7.57e+06 M⁻¹ s⁻¹ and 4.91e+06 M⁻¹ s⁻¹ and 5.83e+06 M⁻¹ s⁻¹	–
B6	0.0531 nM	0.00083 s⁻¹	1.56e+07 M⁻¹ s⁻¹	0.0213 nM	0.000187 s⁻¹	8.8e+06 M⁻¹ s⁻¹	–
B7	0.0591 nM	0.00079 s⁻¹	1.34e+07 M⁻¹ s⁻¹	0.0257 nM	0.000187 s⁻¹	7.26e+06 M⁻¹ s⁻¹	–
B8	0.0415 nM	0.000371 s⁻¹	8.93e+06 M⁻¹ s⁻¹	0.0102 nM	0.000128 s⁻¹	1.25e+07 M⁻¹ s⁻¹	–
B9	0.0274 nM	0.00041 s⁻¹	1.5e+07 M⁻¹ s⁻¹	0.0197 nM	0.00016 s⁻¹	8.11e+06 M⁻¹ s⁻¹	–
B10	0.0475 nM and 0.0184 nM	0.000437 s⁻¹ and 0.000222 s⁻¹	9.19e+06 M⁻¹ s⁻¹ and 1.21e+07 M⁻¹ s⁻¹	0.0204 nM and 0.0267 nM and 0.00908 nM	0.000152 s⁻¹ and 0.000154 s⁻¹ and 5.74e-05 s⁻¹	7.43e+06 M⁻¹ s⁻¹ and 5.78e+06 M⁻¹ s⁻¹ and 6.32e+06 M⁻¹ s⁻¹	–
B11	0.00725 nM	0.000242 s⁻¹	3.33e+07 M⁻¹ s⁻¹	0.00394 nM	5.48e-05 s⁻¹	1.39e+07 M⁻¹ s⁻¹	–
B12	0.0119 nM	0.000148 s⁻¹	1.24e+07 M⁻¹ s⁻¹	0.00985 nM	7.08e-05 s⁻¹	7.19e+06 M⁻¹ s⁻¹	–
B13	0.0223 nM	0.000305 s⁻¹	1.37e+07 M⁻¹ s⁻¹	0.0158 nM	0.000105 s⁻¹	6.64e+06 M⁻¹ s⁻¹	–
B14	0.107 nM	0.00104 s⁻¹	9.69e+06 M⁻¹ s⁻¹	0.0645 nM	0.000351 s⁻¹	5.44e+06 M⁻¹ s⁻¹	–
B15	0.142 nM	0.00158 s⁻¹	1.11e+07 M⁻¹ s⁻¹	0.0688 nM	0.000491 s⁻¹	7.14e+06 M⁻¹ s⁻¹	–
B16	–	–	–	–	–	–	150
B17	–	–	–	–	–	–	6
B18	–	–	–	–	–	–	1.4
B19	–	–	–	–	–	–	1.6
B20	–	–	–	–	–	–	9.1
B21	–	–	–	–	–	–	18
